T1: CD24裸肽 (CD24 naked peptide) (human, UniProt P25063 27-59, limits assumed)
T1 construct: also called 抗原CD24
T1 peptide (looked up): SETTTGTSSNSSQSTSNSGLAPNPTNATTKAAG

T2: 重组人rNKG2D分子 (recombinant human NKG2D) (human, UniProt P26718 78-216, limits assumed)
T2 construct: Used as SPR analyte; source and construct are not described
T2 sequence (looked up): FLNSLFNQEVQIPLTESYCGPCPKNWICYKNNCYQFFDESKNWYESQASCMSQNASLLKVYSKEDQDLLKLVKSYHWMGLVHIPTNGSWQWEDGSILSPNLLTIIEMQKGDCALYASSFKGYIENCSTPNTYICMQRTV


Tests used:
[1] = target: T1, CD24裸肽 (CD24 naked peptide); experiment: SPR, Biacore X100; antibody captured by anti-human IgG(Fc) on a CM5 chip, CD24 naked peptide as analyte (100-0.39 nM), 25 C
[2] = target: T2, 重组人rNKG2D分子 (recombinant human NKG2D); experiment: SPR, Biacore X100; cG7-MICA captured by anti-human IgG(Fc) on a CM5 chip, recombinant human rNKG2D as analyte (100-6.25 nM)

Binder	Kd [1]	koff [1]	kon [1]	Kd [2]	koff [2]	kon [2]
抗CD24人源化嵌合抗体cG7 (antibody, V domains shown) VH: QVKLEESGGGLVQPGGSLKISCAASGFDFSRYWMSWVRQAPGKGLEWIGEINPDSSTINYTPSLRDKFIISRDNAKNTLYLQMSKVRYEDTSLYYCARQGDYWGQGTSVTVSS VL: not shown	0.191 nM	0.000336 s⁻¹	1.76e+06 M⁻¹ s⁻¹			
靶向CD24的双特异性抗体cG7-MICA (anti-CD24 humanized chimeric antibody cG7 fused at the heavy chain C-terminus to the human MICA extracellular domains 1-3) (bispecific antibody, Expressed in CHO-s, purified on Protein A, about 210 kD) heavy: not shown light: DIVMTQTPLSLSVTIGQPASISCKSSQSLLHSDGKTYLNWLLQRPGQSPKRLIYLVSKLDSGVPDRFTGSGSGTDFTLKVSRVEAEDLGVYYCWQGAHFPYTFGGGTKLEIKVDTVAAPSVFIFPPSDEQLKSGTASVVCLLNNFYPREAKVQWKVDNALQSGNSQESVTEQDSKDSTYSLSSTLTLSKADYEKHKVYACEVTHQGLSSPVTKSFNRGEC	0.242 nM	0.000339 s⁻¹	1.4e+06 M⁻¹ s⁻¹	576 nM	0.0015 s⁻¹	2620 M⁻¹ s⁻¹

Source: patent CN109678963A (UNIV CHINA PHARMA, dated 2019)
